Tests used:
FR3exFc = target: T1, FR3exFc (human); assay: BIAcore, mini-antibody format
T1 construct: Said to be entirely in dimeric form; also called FR3/Fc; FGFR3/Fc

FGFR3 wild type on cells = FGFR3 wild type on cells (human, UniProt P22607 23-806); assay: cell-based or functional assay
Chain of FGFR3 wild type on cells (P22607 23-806 limits assumed): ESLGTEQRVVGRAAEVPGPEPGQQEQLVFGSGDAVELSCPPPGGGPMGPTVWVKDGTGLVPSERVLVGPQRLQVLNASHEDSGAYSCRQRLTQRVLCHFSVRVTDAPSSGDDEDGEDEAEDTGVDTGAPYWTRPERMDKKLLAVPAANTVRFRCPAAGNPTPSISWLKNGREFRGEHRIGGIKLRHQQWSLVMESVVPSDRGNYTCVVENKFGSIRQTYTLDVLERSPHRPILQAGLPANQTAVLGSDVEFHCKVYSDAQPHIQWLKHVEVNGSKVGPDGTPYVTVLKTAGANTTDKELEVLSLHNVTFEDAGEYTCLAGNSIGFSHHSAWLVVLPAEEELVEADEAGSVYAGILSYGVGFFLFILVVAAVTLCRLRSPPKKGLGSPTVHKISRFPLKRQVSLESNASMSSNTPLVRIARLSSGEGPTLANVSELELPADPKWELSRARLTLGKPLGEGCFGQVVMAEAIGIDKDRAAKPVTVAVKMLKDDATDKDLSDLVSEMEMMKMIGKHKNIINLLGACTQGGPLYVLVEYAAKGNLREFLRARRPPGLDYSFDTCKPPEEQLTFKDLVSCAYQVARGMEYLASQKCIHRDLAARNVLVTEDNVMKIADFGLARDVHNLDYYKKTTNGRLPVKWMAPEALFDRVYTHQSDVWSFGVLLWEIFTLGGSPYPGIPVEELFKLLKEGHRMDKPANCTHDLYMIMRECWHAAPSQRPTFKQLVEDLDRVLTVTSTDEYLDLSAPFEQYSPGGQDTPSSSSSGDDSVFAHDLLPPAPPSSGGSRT

T1 sequence (chain, as listed by the source limits assumed): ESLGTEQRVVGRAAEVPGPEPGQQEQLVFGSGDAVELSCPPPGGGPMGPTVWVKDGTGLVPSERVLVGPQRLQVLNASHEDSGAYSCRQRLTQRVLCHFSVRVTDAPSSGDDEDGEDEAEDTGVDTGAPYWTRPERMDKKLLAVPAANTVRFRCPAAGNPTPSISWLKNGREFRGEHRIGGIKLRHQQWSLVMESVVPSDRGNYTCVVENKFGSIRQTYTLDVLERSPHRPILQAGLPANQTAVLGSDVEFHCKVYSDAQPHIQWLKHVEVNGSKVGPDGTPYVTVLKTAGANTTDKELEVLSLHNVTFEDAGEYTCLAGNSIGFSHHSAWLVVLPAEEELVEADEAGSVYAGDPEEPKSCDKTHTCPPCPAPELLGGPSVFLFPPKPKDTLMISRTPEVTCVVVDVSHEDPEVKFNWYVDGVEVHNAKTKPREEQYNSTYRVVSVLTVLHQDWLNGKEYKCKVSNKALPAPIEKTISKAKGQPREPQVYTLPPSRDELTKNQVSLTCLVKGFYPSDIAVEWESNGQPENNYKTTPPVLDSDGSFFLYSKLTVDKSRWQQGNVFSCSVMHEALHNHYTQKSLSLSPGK

| Kd (FR3exFc) [nM] | IC50, FDCP-FGFR3 proliferation assay with FGF9 (FGFR3 wild type on cells) [nM] | Binder |
| --- | --- | --- |
| 2 | 8 | MS-Pro-26-dHLX-MH (other, not shown: a dimerising Fc or GST; small tags and cut ends, Dimeric Fab mini-antibody: Fab fused to the dHLX helix and the MH tag. These parts are not in the letters., Fab mini-antibody format Fab-dHLX-MH (dimer of the Fab); also called MSPRO26 Fab-dHLX; MSPRO26 dimeric dHLX format; copies: 2 + 2) VH: QVQLVQSGAEVKKPGASVKVSCKASGYTFTSYYMHWVRQAPGQGLEWMGWINPNSGGTNYAQKFQGRVTMTRDTSISTAYMELSSLRSEDTAVYYCARGYWYAYFTYINYGYFDNWGQGTLVTVSS VL: DIALTQPASVSGSPGQSITISCTGTSSDVGGYNYVSWYQQHPGKAPKLMIYDVSNRPSGVSNRFSGSKSGNTASLTISGLQAEDEADYYCQSYDNNSDVVFGGGTKLTVL |
| 2 |  | MS-Pro-24-dHLX-MH (other, not shown: a dimerising Fc or GST; small tags and cut ends, Dimeric Fab mini-antibody: Fab fused to the dHLX helix and the MH tag. These parts are not in the letters., Fab mini-antibody format Fab-dHLX-MH (dimer of the Fab); copies: 2 + 2) VH: QVQLVQSGAEVKKPGSSVKVSCKASGGTFSSYAISWVRQAPGQGLEWMGGIIPIFGTANYAQKFQGRVTITADESTSTAYMELSSLRSEDTAVYYCARVNHWTYTFDYWGQGTLVTVSS VL: not shown |

From US20050147612A1 (published 2005)
